Experimental data taken from the RNAGym collection of RNA variant scans (doi:10.1073/pnas.2313332121).
Variants at the floor of the assay were thinned out.

B1: TPR 5TU (parent)
chain: GGAUCUUCUCGAUCUAACAAAAAAGACAAAUCUGCCACAAAGCUUGAGAGCAUCUUCGGAUGCAGAGGCGGCAGCCUUCGGUGGCGCGAUAGCGCCAACGUUCUCAACUAUGACACGCAAAACGCGUGCUCCGUUGAAUGGAGUUUAUCAUG

Variants of: B1
Test: polymerase ribozyme fitness, log enrichment relative to wild type (log ratio); higher = more active; in vitro selection for triplet polymerase activity
Procedure, shortened: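 After PCR construction and transcription, each subunit's mutant library from a heterodimeric triplet polymerase ribozyme was annealed with a biotinylated primer, the partner subunit and triplets. Incubation was frozen, at −7 °C, and extended constructs were gel-excised, bound to streptavidin beads and amplified by RT-PCR, in one selection round done in triplicate. Fitness is the logarithm of a genotype's enrichment divided by that of the wild type, from inverse-variance-weighted replicate averages of Illumina-sequenced inputs and outputs. The base of the logarithm is 2, and genotypes needed ≥10 input reads and ≥1 read per output.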

Variant | polymerase ribozyme fitness (log ratio)
C10A C32A U56G G80C U82G C87U A98U | ≤ -4.2
C10U A41G A64G G65C A91C | ≤ -4.2
C10U U109G A142C C149A | ≤ -4.2
G11A C14G A19U C27A U31C C118G | ≤ -4.2
G11A G67A C79G C87A C114G A137G | ≤ -4.2
C10U U56A C93U A122U C149U G152U | ≤ -4.2
G11C A17U C79G G86U U101G C125U G152A | ≤ -4.2
C10U A41U G70C G83U C108U U134A A142G | ≤ -4.2
C10G A73U G128U | ≤ -4.2
C10U A29U G92A C99A U145C | ≤ -4.2
C10U G74C G88C A110G | ≤ -4.2
G11A A40G A49C U61A G81A C125A | ≤ -4.2
G11C A40C G84A A97U | -3.7
G11A C43U C54U A106U C108G G112A | ≤ -4.2
C10U G88U | ≤ -4.2
C10U A29G G59A G81A A97G | ≤ -4.2
C10U C27U U55A G59C G84A | ≤ -4.2
G11A A29U U82G C87A G94C C96U A98G A122C G141A | ≤ -4.2
G11A A26C G68U C75U A147C | ≤ -4.2
C10U G94A U148G | ≤ -4.2
C10G C54U U56A G62U G94A C149U | ≤ -4.2

Variant | polymerase ribozyme fitness (log ratio)
C10A G67C C93G C99G A137U U146A | ≤ -4.2
C10G A52C C93U | ≤ -4.2
C10U U55A G84U | -4.1
G11A C14G A30U U44A U45A G92U | ≤ -4.2
G11A A17C A39C | -3.25
C10G U33G G42C G50U G74C | ≤ -4.2
C10G A47U C54A C72U G81A G92C G133U U135G | ≤ -4.2
C10A A41G C103A A110G | ≤ -4.2
G11A C38A A40G | -4.14
G11A U104A A119U G136A U144A | -2.19
G11A G141U | 0.246
C10G A23C U31G C75U C87G C93A G133U G136U | ≤ -4.2
G11A C38U G59C A64U G81A C93U G94C | ≤ -4.2
C10G U78G C85G U109C G140U | ≤ -4.2
C10U U33G C38G U44G A52G C87U C108U C118U | ≤ -4.2
C10G A20G A138G U144A U145A | ≤ -4.2
G11A A21U C85U | -1.32
C10A U33A U78G U90A G140A | ≤ -4.2
C10U G50A U55G A91G G143C | ≤ -4.2
C10A G84U | ≤ -4.2
C10U A26U C35U C54U A60C C95A C99U C103G A142U | ≤ -4.2

Variant | polymerase ribozyme fitness (log ratio)
G11A G59A | -1.71
G11C A12U C14A A28G A52C G62C U78A G112C | ≤ -4.2
C10U C27U C35G C87G C96U U148G | ≤ -4.2
G11C C14G C87A A121C U144A | ≤ -4.2
C10G C36U U55A C95U G133U | ≤ -4.2
C10G A16U C54U U56A G59A G88C C105G A110G A119U C123A U145G U148C | ≤ -4.2
G11C A40C G42A G58U A60U C85G A89U C93G | ≤ -4.2
C10G A28G U82G G94C C95A G140A | ≤ -4.2
G11C A39U A73U C96U | ≤ -4.2
C10U U13G U45A G46A G58C C63U G141U | ≤ -4.2
C10G G42U G58A G86U A97U U101G G141C | ≤ -4.2
C10U G136A | -2.74
C10U A22C C36A A49C U53C C57G G58A G86U C93U G117U | ≤ -4.2
G11A C125U U139G | -2.67
C10A G34U A40U C57U U78G C79U G84C C85A U104A A120C | ≤ -4.2
C10G G94A | -3.44
G11A A60G A106G | -0.626
C10U C116U A147C | -3.39
G11C A28G U56A U77A C87A A122U | ≤ -4.2
C10U U55A | -2.91
C10U A12C C54A C85U C108U | ≤ -4.2

Variant | polymerase ribozyme fitness (log ratio)
C10G G25U U55A G88A A106G U130A A150G | ≤ -4.2
C10U A24U U33G A41G U56A C85U A91C | ≤ -4.2
C10U U13G C35U G50U G59C A60U C85A G94C G141A | ≤ -4.2
C10A C14U C93G C149U | ≤ -4.2
C10G U55A C69G C93U C103G C116A | ≤ -4.2
C10U A23U U90G | ≤ -4.2
G11C A91U | -4.11
G11A A91G | -3.81
G11A A19U U56G U82C G84U C95U | ≤ -4.2
C10U C36U C63A C118U | ≤ -4.2
C10U A22C G46A G50A C79G C85U C105U | ≤ -4.2
C10U A21G A22G A40G C79A C85G A138U | ≤ -4.2
C10U G70U C87A C118U | ≤ -4.2
C10G G58A G59C G65A C95G C96A A120C | ≤ -4.2
C10G C38U C87A C93G | ≤ -4.2
G11C A40G G84A A97C G126A | ≤ -4.2
G11A C27A A37C G59C G83A G86A G92A U102G G117U | ≤ -4.2
C10U C93A | -3.86
C10G G92C | -3.61
C10G G92U | -3.24
G11A C32U G71A A137G A138G | ≤ -4.2
